Literature values in article PMC7109175.

Target: cMyBP-C (Mus musculus) (UniProt O70468)
Sequence of UniProt O70468 (O70468 whole entry): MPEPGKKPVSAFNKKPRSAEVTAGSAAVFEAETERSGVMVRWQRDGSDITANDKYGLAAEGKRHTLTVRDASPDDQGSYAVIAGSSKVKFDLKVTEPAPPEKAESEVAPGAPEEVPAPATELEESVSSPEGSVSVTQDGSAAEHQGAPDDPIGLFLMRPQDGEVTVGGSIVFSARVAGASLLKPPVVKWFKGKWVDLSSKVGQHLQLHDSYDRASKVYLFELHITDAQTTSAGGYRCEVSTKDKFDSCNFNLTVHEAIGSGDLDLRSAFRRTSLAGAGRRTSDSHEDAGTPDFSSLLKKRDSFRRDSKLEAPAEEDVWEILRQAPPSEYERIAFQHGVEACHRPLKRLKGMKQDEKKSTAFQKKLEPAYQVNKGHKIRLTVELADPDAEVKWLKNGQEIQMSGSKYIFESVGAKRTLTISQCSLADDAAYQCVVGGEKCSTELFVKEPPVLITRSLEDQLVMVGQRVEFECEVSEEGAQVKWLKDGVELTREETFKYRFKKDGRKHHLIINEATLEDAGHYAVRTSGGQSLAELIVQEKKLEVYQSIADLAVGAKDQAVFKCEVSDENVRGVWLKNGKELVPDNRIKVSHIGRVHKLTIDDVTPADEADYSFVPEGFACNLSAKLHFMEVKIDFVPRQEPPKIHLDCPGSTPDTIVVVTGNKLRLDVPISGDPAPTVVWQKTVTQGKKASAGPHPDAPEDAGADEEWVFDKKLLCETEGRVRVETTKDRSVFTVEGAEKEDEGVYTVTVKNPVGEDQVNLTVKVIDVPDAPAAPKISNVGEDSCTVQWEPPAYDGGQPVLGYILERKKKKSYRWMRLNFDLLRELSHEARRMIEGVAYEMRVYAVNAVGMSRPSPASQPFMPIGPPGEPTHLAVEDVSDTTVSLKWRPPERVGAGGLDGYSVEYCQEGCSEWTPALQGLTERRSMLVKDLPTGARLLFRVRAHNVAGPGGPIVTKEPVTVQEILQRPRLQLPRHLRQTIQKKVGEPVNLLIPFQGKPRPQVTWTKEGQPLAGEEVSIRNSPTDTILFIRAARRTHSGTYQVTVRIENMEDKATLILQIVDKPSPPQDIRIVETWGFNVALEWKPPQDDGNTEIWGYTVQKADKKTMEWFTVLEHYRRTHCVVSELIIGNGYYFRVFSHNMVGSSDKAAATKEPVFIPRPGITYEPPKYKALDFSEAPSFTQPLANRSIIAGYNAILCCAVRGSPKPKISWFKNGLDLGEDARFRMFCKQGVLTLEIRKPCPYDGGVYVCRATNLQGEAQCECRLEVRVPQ

Substance: Fhod3 (from UniProt Q76LL6)
- Kd: 800 nM
